± gives the standard error. Fewer inactive variants are shown than the library holds.

The chains are these.
B1: glmS ribozyme (parent)
chain: AUAAAAGCGCCAGAACUACAGAAAUGUAGUUGACGAGGAGGAGGUUUAUCGAAUUUUCGGCGGAUGCCUCCAAA

Settings in all cases: with glucosamine-6-phosphate
Variants of B1 are the subject of data set [1]. Put plainly: self-cleavage kobs at 40 uM GlcN6P; higher = faster cleavage; RNA array. Put shortly: (§1)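 Ribozyme variants carrying barcodes were transcribed in situ on sequenced MiSeq chips by E. coli RNA polymerase and tracked at 37 °C with a hybridised Cy3 probe. They were exposed to 40 μM to 10 mM glucosamine-6-phosphate in HEPES/KCl/Mg(OAc)2 buffer. kobs came from exponential decay fits of normalised per-tile medians, and kcat and KM from weighted Michaelis–Menten fits.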

Variants of B1 are the subject of data set [2]. Put plainly: self-cleavage kobs at 160 uM GlcN6P; higher = faster cleavage; RNA array. In a few lines: as §1
Variants of B1 are the subject of data set [3]. Put plainly: self-cleavage kobs at 640 uM GlcN6P; higher = faster cleavage; RNA array. Put shortly:
as §1

Data set [4] covers variants of B1. Put plainly: self-cleavage kobs at 2500 uM GlcN6P; higher = faster cleavage; RNA array. In a few lines:
as §1

Data set [5] covers variants of B1. In words: self-cleavage kobs at 10000 uM GlcN6P; higher = faster cleavage; RNA array. In a few lines:
as §1

A48U A64C: the “self-cleavage kobs at 40 uM GlcN6P” value with glucosamine-6-phosphate [1] was < 1e-05 s⁻¹. Also, the “self-cleavage kobs at 160 uM GlcN6P” value in the data set with glucosamine-6-phosphate [2] was < 1e-05 s⁻¹. In addition, the “self-cleavage kobs at 640 uM GlcN6P” value in the data set with glucosamine-6-phosphate [3] was < 1e-05 s⁻¹.

In the case of C11A G41C, the “self-cleavage kobs at 40 uM GlcN6P” value with glucosamine-6-phosphate [1] was < 1e-05 s⁻¹. In addition, in the data set with glucosamine-6-phosphate [2], the “self-cleavage kobs at 160 uM GlcN6P” value is < 1e-05 s⁻¹. Besides, the “self-cleavage kobs at 640 uM GlcN6P” value with glucosamine-6-phosphate [3] is < 1e-05 s⁻¹. The “self-cleavage kobs at 2500 uM GlcN6P” value with glucosamine-6-phosphate [4] is < 1e-05 s⁻¹.

Turning to G43U G51A, the “self-cleavage kobs at 40 uM GlcN6P” value with glucosamine-6-phosphate [1] is < 1e-05 s⁻¹. For the same variant, the “self-cleavage kobs at 640 uM GlcN6P” value with glucosamine-6-phosphate [3] was < 1e-05 s⁻¹.

As to G13U U57G, in the data set with glucosamine-6-phosphate [1], the “self-cleavage kobs at 40 uM GlcN6P” value was < 1e-05 s⁻¹.

Take G9A G13A G63C: the “self-cleavage kobs at 40 uM GlcN6P” value with glucosamine-6-phosphate [1] is < 1e-05 s⁻¹. In addition, the “self-cleavage kobs at 10000 uM GlcN6P” value with glucosamine-6-phosphate [5] is < 1e-05 s⁻¹.

With A6G C61G, the “self-cleavage kobs at 40 uM GlcN6P” value with glucosamine-6-phosphate [1] is < 1e-05 s⁻¹. Besides, the “self-cleavage kobs at 160 uM GlcN6P” value in the data set with glucosamine-6-phosphate [2] was < 1e-05 s⁻¹. Also, the “self-cleavage kobs at 640 uM GlcN6P” value in the data set with glucosamine-6-phosphate [3] was < 1e-05 s⁻¹. Besides, the “self-cleavage kobs at 2500 uM GlcN6P” value with glucosamine-6-phosphate [4] is < 1e-05 s⁻¹. Also, the “self-cleavage kobs at 10000 uM GlcN6P” value with glucosamine-6-phosphate [5] is < 1e-05 s⁻¹.

Regarding C16A G38C, in the data set with glucosamine-6-phosphate [1], the “self-cleavage kobs at 40 uM GlcN6P” value is < 1e-05 s⁻¹. In addition, the “self-cleavage kobs at 160 uM GlcN6P” value with glucosamine-6-phosphate [2] is < 1e-05 s⁻¹. Further, the “self-cleavage kobs at 640 uM GlcN6P” value with glucosamine-6-phosphate [3] was < 1e-05 s⁻¹. The “self-cleavage kobs at 10000 uM GlcN6P” value with glucosamine-6-phosphate [5] is < 1e-05 s⁻¹.

For the variant C10A G37C A42C C70A, the “self-cleavage kobs at 40 uM GlcN6P” value with glucosamine-6-phosphate [1] is < 1e-05 s⁻¹.

With G66A C71U, the “self-cleavage kobs at 40 uM GlcN6P” value with glucosamine-6-phosphate [1] was 0.000673 ± 0.00012 s⁻¹. For the same variant, the “self-cleavage kobs at 640 uM GlcN6P” value in the data set with glucosamine-6-phosphate [3] was determined as 0.00361 ± 0.0008 s⁻¹. In addition, the “self-cleavage kobs at 10000 uM GlcN6P” value with glucosamine-6-phosphate [5] was 0.0215 ± 0.007 s⁻¹.

As to U47C U49A U54G C68A, the “self-cleavage kobs at 40 uM GlcN6P” value with glucosamine-6-phosphate [1] is < 1e-05 s⁻¹. Moreover, in the data set with glucosamine-6-phosphate [5], the “self-cleavage kobs at 10000 uM GlcN6P” value was < 1e-05 s⁻¹.

Take A12C G32A A48G: in the data set with glucosamine-6-phosphate [1], the “self-cleavage kobs at 40 uM GlcN6P” value was < 1e-05 s⁻¹.

In the case of G43C G62C, the “self-cleavage kobs at 40 uM GlcN6P” value with glucosamine-6-phosphate [1] was < 1e-05 s⁻¹. The “self-cleavage kobs at 160 uM GlcN6P” value with glucosamine-6-phosphate [2] was < 1e-05 s⁻¹. For the same variant, the “self-cleavage kobs at 640 uM GlcN6P” value with glucosamine-6-phosphate [3] was < 1e-05 s⁻¹. Besides, the “self-cleavage kobs at 2500 uM GlcN6P” value with glucosamine-6-phosphate [4] was < 1e-05 s⁻¹.

For G43C G62U, the “self-cleavage kobs at 40 uM GlcN6P” value with glucosamine-6-phosphate [1] was < 1e-05 s⁻¹. Moreover, the “self-cleavage kobs at 160 uM GlcN6P” value with glucosamine-6-phosphate [2] is < 1e-05 s⁻¹. For the same variant, in the data set with glucosamine-6-phosphate [3], the “self-cleavage kobs at 640 uM GlcN6P” value was < 1e-05 s⁻¹. The “self-cleavage kobs at 2500 uM GlcN6P” value in the data set with glucosamine-6-phosphate [4] is < 1e-05 s⁻¹. Also, in the data set with glucosamine-6-phosphate [5], the “self-cleavage kobs at 10000 uM GlcN6P” value is < 1e-05 s⁻¹.

In the case of A23C, the “self-cleavage kobs at 40 uM GlcN6P” value with glucosamine-6-phosphate [1] was 0.00185 ± 0.00044 s⁻¹. In the data set with glucosamine-6-phosphate [2], the “self-cleavage kobs at 160 uM GlcN6P” value is 0.00277 ± 0.00082 s⁻¹. Besides, in the data set with glucosamine-6-phosphate [3], the “self-cleavage kobs at 640 uM GlcN6P” value stood at 0.00459 ± 0.0012 s⁻¹. Further, in the data set with glucosamine-6-phosphate [4], the “self-cleavage kobs at 2500 uM GlcN6P” value is 0.0102 ± 0.0033 s⁻¹. The “self-cleavage kobs at 10000 uM GlcN6P” value with glucosamine-6-phosphate [5] turned out to be 0.0549 ± 0.021 s⁻¹.

C8G A48G C58G: the “self-cleavage kobs at 40 uM GlcN6P” value in the data set with glucosamine-6-phosphate [1] is < 1e-05 s⁻¹. The “self-cleavage kobs at 160 uM GlcN6P” value in the data set with glucosamine-6-phosphate [2] was < 1e-05 s⁻¹. Besides, in the data set with glucosamine-6-phosphate [3], the “self-cleavage kobs at 640 uM GlcN6P” value was < 1e-05 s⁻¹. Further, in the data set with glucosamine-6-phosphate [5], the “self-cleavage kobs at 10000 uM GlcN6P” value was < 1e-05 s⁻¹.

As to G63C C71U, the “self-cleavage kobs at 40 uM GlcN6P” value with glucosamine-6-phosphate [1] was < 1e-05 s⁻¹. Further, the “self-cleavage kobs at 160 uM GlcN6P” value with glucosamine-6-phosphate [2] is < 1e-05 s⁻¹. For the same variant, in the data set with glucosamine-6-phosphate [5], the “self-cleavage kobs at 10000 uM GlcN6P” value is < 1e-05 s⁻¹.

Consider G9U C10U A36U G51A C70G, for which, in the data set with glucosamine-6-phosphate [1], the “self-cleavage kobs at 40 uM GlcN6P” value was < 1e-05 s⁻¹.

Regarding C10A G38U G59A G60A G62A A64U G66C C68G, the “self-cleavage kobs at 40 uM GlcN6P” value in the data set with glucosamine-6-phosphate [1] is 0.000187 ± 6.6e-05 s⁻¹.

Turning to G9C A15U, the “self-cleavage kobs at 40 uM GlcN6P” value with glucosamine-6-phosphate [1] was < 1e-05 s⁻¹. In the data set with glucosamine-6-phosphate [2], the “self-cleavage kobs at 160 uM GlcN6P” value is < 1e-05 s⁻¹. For the same variant, the “self-cleavage kobs at 640 uM GlcN6P” value with glucosamine-6-phosphate [3] was < 1e-05 s⁻¹. Besides, the “self-cleavage kobs at 2500 uM GlcN6P” value with glucosamine-6-phosphate [4] is < 1e-05 s⁻¹. For the same variant, in the data set with glucosamine-6-phosphate [5], the “self-cleavage kobs at 10000 uM GlcN6P” value is < 1e-05 s⁻¹.

Turning to C10G G51C, in the data set with glucosamine-6-phosphate [1], the “self-cleavage kobs at 40 uM GlcN6P” value is < 1e-05 s⁻¹. The “self-cleavage kobs at 160 uM GlcN6P” value in the data set with glucosamine-6-phosphate [2] is < 1e-05 s⁻¹. In addition, the “self-cleavage kobs at 640 uM GlcN6P” value with glucosamine-6-phosphate [3] is < 1e-05 s⁻¹. For the same variant, in the data set with glucosamine-6-phosphate [5], the “self-cleavage kobs at 10000 uM GlcN6P” value is < 1e-05 s⁻¹.

As to A12C G38A, the “self-cleavage kobs at 40 uM GlcN6P” value with glucosamine-6-phosphate [1] was < 1e-05 s⁻¹. For the same variant, the “self-cleavage kobs at 160 uM GlcN6P” value with glucosamine-6-phosphate [2] is < 1e-05 s⁻¹.

As for C11G U49A, in the data set with glucosamine-6-phosphate [1], the “self-cleavage kobs at 40 uM GlcN6P” value was < 1e-05 s⁻¹. Further, the “self-cleavage kobs at 160 uM GlcN6P” value in the data set with glucosamine-6-phosphate [2] is < 1e-05 s⁻¹. Also, in the data set with glucosamine-6-phosphate [3], the “self-cleavage kobs at 640 uM GlcN6P” value was < 1e-05 s⁻¹. In addition, the “self-cleavage kobs at 2500 uM GlcN6P” value with glucosamine-6-phosphate [4] is < 1e-05 s⁻¹.
